Results from paper PMC9728965, “Stomatal CO2/bicarbonate sensor consists of two interacting protein kinases, Raf-like HT1 and non-kinase-activity requiring MPK12/MPK4” (Science Advances, 2022).

T1: His-HT1 (high leaf temperature 1, Raf-like protein kinase), wild type (Arabidopsis thaliana, UniProt Q2MHE4 1-390)
T1 construct: HT1 protein kinase of Arabidopsis thaliana; UniProt Q2MHE4 is printed as the 'long form of HT1' used for the AlphaFold2 model; Expressed from pET30a(+); source: E. coli, purified (Ni resin beads); not shown: His tag, N-terminal, kept
T1 sequence (looked up): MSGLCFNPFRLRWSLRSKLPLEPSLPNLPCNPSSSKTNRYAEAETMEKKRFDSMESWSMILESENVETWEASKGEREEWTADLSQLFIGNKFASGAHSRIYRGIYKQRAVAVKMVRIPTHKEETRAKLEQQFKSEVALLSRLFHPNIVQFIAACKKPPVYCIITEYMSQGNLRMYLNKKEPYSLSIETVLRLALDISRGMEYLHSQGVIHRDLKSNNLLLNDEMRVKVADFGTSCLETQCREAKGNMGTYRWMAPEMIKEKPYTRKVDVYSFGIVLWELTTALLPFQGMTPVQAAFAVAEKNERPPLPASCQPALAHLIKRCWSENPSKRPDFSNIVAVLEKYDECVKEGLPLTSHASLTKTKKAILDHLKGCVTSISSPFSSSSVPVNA

T2: His-HT1-R173Q (Arabidopsis thaliana, UniProt Q2MHE4 1-390, R173Q)
T2 construct: HT1 protein kinase of Arabidopsis thaliana with R173Q (dominant allele from an EMS screen); As m1 with the point mutation; source: E. coli, purified (Ni resin beads); not shown: His tag, N-terminal, kept
T2 sequence (looked up): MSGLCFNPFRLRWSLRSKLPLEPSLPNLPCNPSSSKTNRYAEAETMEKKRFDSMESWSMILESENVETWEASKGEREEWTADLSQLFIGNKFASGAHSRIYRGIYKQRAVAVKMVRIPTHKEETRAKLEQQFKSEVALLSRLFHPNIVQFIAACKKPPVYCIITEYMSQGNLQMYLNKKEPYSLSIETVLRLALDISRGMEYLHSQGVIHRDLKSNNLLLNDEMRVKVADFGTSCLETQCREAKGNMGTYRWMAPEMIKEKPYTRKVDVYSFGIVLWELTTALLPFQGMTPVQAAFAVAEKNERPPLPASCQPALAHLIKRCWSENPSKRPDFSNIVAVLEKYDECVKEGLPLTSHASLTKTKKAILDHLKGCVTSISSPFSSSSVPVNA


Tests used:
[1] = target: T1, His-HT1 (high leaf temperature 1, …); assay: pull-down; GST-MPK on glutathione Sepharose 4B beads, His-HT1 as prey; 5 ug of each protein in 200 ul of 50 mM tris-HCl pH 7.5, 150 mM NaCl, 0.1% Triton X-100, 1 mM DTT; 20 mM NaHCO3 or 20 mM NaCl (control) in all buffers including washes; room temperature; immunoblot with anti-GST and anti-His; conditions: both partners purified
His-HT1-R173Q = target: T2, His-HT1-R173Q; assay: as above; conditions: both partners purified

| binding result [1] | binding result (His-HT1-R173Q) | Binder |
| --- | --- | --- |
| binds | binds | GST-MPK4 (mitogen-activated protein kinase 4) (enzyme, Arabidopsis thaliana, UniProt Q39024 1-376, looked up, MPK4, MAP kinase of Arabidopsis thaliana; UniProt Q39024 printed for the model; Expressed from pGEX-6P-1; source: E. coli, purified (glutathione Sepharose beads); not shown: GST, N-terminal, kept) MSAESCFGSSGDQSSSKGVATHGGSYVQYNVYGNLFEVSRKYVPPLRPIGRGAYGIVCAATNSETGEEVAIKKIGNAFDNIIDAKRTLREIKLLKHMDHENVIAVKDIIKPPQRENFNDVYIVYELMDTDLHQIIRSNQPLTDDHCRFFLYQLLRGLKYVHSANVLHRDLKPSNLLLNANCDLKLGDFGLARTKSETDFMTEYVVTRWYRAPELLLNCSEYTAAIDIWSVGCILGETMTREPLFPGKDYVHQLRLITELIGSPDDSSLGFLRSDNARRYVRQLPQYPRQNFAARFPNMSAGAVDLLEKMLVFDPSRRITVDEALCHPYLAPLHDINEEPVCVRPFNFDFEQPTLTEENIKELIYRETVKFNPQDSV |
| binds |  | GST-MPK12 (mitogen-activated protein kinase 12) (enzyme, Arabidopsis thaliana, UniProt Q8GYQ5 1-372, looked up, MPK12, MAP kinase of Arabidopsis thaliana; UniProt Q8GYQ5 printed for the model; Expressed from pGEX-6P-1; source: E. coli, purified (glutathione Sepharose beads); not shown: GST, N-terminal, kept) MSGESSSGSTEHCIKVVPTHGGRYVQYNVYGQLFEVSRKYVPPIRPIGRGACGIVCAAVNSVTGEKVAIKKIGNAFDNIIDAKRTLREIKLLRHMDHENVITIKDIVRPPQRDIFNDVYIVYELMDTDLQRILRSNQTLTSDQCRFLVYQLLRGLKYVHSANILHRDLRPSNVLLNSKNELKIGDFGLARTTSDTDFMTEYVVTRWYRAPELLLNCSEYTAAIDIWSVGCILGEIMTGQPLFPGKDYVHQLRLITELVGSPDNSSLGFLRSDNARRYVRQLPRYPKQQFAARFPKMPTTAIDLLERMLVFDPNRRISVDEALGHAYLSPHHDVAKEPVCSTPFSFDFEHPSCTEEHIKELIYKESVKFNPDH |
